One data set addresses NF90long;NF45 (mouse;mouse?, UniProt Q9Z1X4;Q9CXY6 1-590;1-390, |). Put plainly: competition; competes DY781 21mer efficiently; EMSA: 20 mM HEPES pH 7.5, 150 mM K acetate, on ice, 1 uM RNA (competition 0.5 uM complex); FA: same buffer, 23.5 C, 250 nM RNA; ITC: 20 mM HEPES pH 7.5, 50 mM NaCl, 25 C. The note with it: protein: recombinant;recombinant; tags: 6xHis removed by TEV;6xHis removed by TEV; copies: 1;1; hairpin with mismatches. In general terms: Mobility shift assays separate free from complexed probe on a gel.

In a further data set the target is T1, NF90dsRBDs-deltaNLS (mouse, UniProt Q9Z1X4 393-592).
T1 sequence: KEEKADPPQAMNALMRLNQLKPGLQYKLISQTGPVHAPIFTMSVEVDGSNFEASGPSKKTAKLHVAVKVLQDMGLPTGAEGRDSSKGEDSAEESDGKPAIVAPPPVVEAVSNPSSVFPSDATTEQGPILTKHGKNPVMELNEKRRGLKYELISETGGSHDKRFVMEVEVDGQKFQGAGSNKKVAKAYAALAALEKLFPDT
The data set can be described thus: ITC; apparent Kd; unit as printed (mM), possibly uM misprint; 1:2 RNA:protein; EMSA: 20 mM HEPES pH 7.5, 150 mM K acetate, on ice, 1 uM RNA (competition 0.5 uM complex); FA: same buffer, 23.5 C, 250 nM RNA; ITC: 20 mM HEPES pH 7.5, 50 mM NaCl, 25 C. The note with it: protein: recombinant; tags: GST removed by TEV; chain copies: 2; blunt. A general note: In ITC the heat of successive injections is recorded.

The target of the next data set is NF90long;NF45-deltaN28 (mouse;mouse, UniProt Q9Z1X4;Q9CXY6 1-590;28-390, |). Put plainly: fluorescence anisotropy; EMSA: 20 mM HEPES pH 7.5, 150 mM K acetate, on ice, 1 uM RNA (competition 0.5 uM complex); FA: same buffer, 23.5 C, 250 nM RNA; ITC: 20 mM HEPES pH 7.5, 50 mM NaCl, 25 C. The note with it: protein: recombinant;recombinant; tags: 6xHis removed by TEV;6xHis removed by TEV; copies: 1;1; label: 5' Cy3 on strand 1; blunt.

Another data set concerns the target T2, NF90dsRBDs (mouse, UniProt Q9Z1X4 380-592).
T2 sequence: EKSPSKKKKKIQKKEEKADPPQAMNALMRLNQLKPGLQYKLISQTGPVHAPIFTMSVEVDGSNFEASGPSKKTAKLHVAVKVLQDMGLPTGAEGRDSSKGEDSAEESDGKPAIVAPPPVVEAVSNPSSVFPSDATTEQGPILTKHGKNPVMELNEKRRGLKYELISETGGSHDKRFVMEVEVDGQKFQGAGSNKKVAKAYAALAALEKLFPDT
The data set is described as above. The note with it: protein: recombinant; tags: GST removed by TEV; label: 5' Cy3 on strand 1; blunt.

In data set [1] the target is NF90-deltaC380;NF45-deltaN28 (with NF90-deltaC380) (mouse?;mouse?, UniProt Q9Z1X4;Q9CXY6 1-380;28-390, |). The data set can be described thus: EMSA; EMSA: 20 mM HEPES pH 7.5, 150 mM K acetate, on ice, 1 uM RNA (competition 0.5 uM complex); FA: same buffer, 23.5 C, 250 nM RNA; ITC: 20 mM HEPES pH 7.5, 50 mM NaCl, 25 C. The note with it: protein: recombinant;recombinant; tags: ;; copies: 1;1; label: 5' DY781 on strand 1; blunt.

B1: GluA2(R/G) hairpin RNA (structured_RNA)
RNA: CAUUAAGGUGGGUGGAAUAGUAUAACAAUAUGCUAAAUGUUGUUAUAGUAUCCCACCUACCCUGAUG
Regarding B1, in the data set with NF90long;NF45, the binding result is “binds”.

B2: 18mer dsRNA, unmodified (dsRNA)
RNA 1: UCACUUUCAUAAUGCUGG
RNA 2: CCAGCAUUAUGAAAGUGA
With B2, the Kd in the data set with NF90dsRBDs-deltaNLS is roughly 2400 µM.

B3: 21mer dsRNA, Cy3 (dsRNA)
RNA 1: UCACUUUCAUAAUGCUGGAUA
RNA 2: UAUCCAGCAUUAUGAAAGUGA
Consider B3, for which the figures for the Kd with NF90long;NF45-deltaN28 and with NF90dsRBDs were 0.046 ± 0.016 µM and 0.433 ± 0.055 µM, respectively.

B4: 18mer dsRNA, 2'F strand (dsRNA)
RNA 1: UCACUUUCAUAAUGCUGG
RNA 2: CCAGCAUUAUGAAAGUGA
modifications: 2'-F ribose uniformly on strand 1
B4: in the data set with NF90dsRBDs-deltaNLS, the Kd was roughly 2400 µM.

B5: 21mer dsRNA, DY781 (dsRNA)
RNA 1: UCACUUUCAUAAUGCUGGAUA
RNA 2: UAUCCAGCAUUAUGAAAGUGA
For B5, in data set [1], the binding result is on record as “no binding”.

(Values after PMC4770229, “Nuclear factor 90 uses an ADAR2-like binding mode to recognize specific bases in dsRNA”.)
